# Reference: patent US20170355766A1 (Xencor, published 2017)
# Changes are numbered by the printed parent chain. Names and notes keep the numbering of the source.
# T1: human FcγRIIb receptor protein (R&D Systems) (human, UniProt P31994 46-217)
# T1 construct: Analyte injected over antibodies captured on a protein A/G chip (Biacore); also called CD32b
# T1 sequence (looked up): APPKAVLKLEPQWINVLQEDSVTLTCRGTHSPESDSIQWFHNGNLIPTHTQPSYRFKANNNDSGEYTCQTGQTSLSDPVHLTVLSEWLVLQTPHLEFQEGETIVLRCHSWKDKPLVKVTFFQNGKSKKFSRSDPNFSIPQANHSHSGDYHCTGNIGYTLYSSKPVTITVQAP
# B1: H268D/K326D/L328Y (antibody, human IgG1, kappa)
# heavy: EVQLVESGGGLVKPGGSLKLSCAASGYTFTSYVMHWVRQAPGKGLEWIGYINPYNDGTKYNEKFQGRVTISSDKSISTAYMELSSLRSEDTAMYYCARGTYYYGTRVFDYWGQGTLVTVSSASTKGPSVFPLAPSSKSTSGGTAALGCLVKDYFPEPVTVSWNSGALTSGVHTFPAVLQSSGLYSLSSVVTVPSSSLGTQTYICNVNHKPSNTKVDKKVEPKSCDKTHTCPPCPAPELLGGPSVFLFPPKPKDTLMISRTPEVTCVVVDVSDEDPEVKFNWYVDGVEVHNAKTKPREEQYNSTYRVVSVLTVLHQDWLNGKEYKCKVSNDAYPAPIEKTISKAKGQPREPQVYTLPPSREEMTKNQVSLTCLVKGFYPSDIAVEWESNGQPENNYKTTPPVLDSDGSFFLYSKLTVDKSRWQQGNVFSCSVMHEALHNHYTQKSLSLSPGK
# light: DIVMTQSPATLSLSPGERATLSCRSSKSLQNVNGNTYLYWFQQKPGQSPQLLIYRMSNLNSGVPDRFSGSGSGTEFTLTISSLEPEDFAVYYCMQHLEYPITFGAGTKLEIKRTVAAPSVFIFPPSDEQLKSGTASVVCLLNNFYPREAKVQWKVDNALQSGNSQESVTEQDSKDSTYSLSSTLTLSKADYEKHKVYACEVTHQGLSSPVTKSFNRGEC
# notes: HuAM4G7 IgG1 Fc variant
# B2: L235W (antibody, human IgG1, kappa)
# heavy: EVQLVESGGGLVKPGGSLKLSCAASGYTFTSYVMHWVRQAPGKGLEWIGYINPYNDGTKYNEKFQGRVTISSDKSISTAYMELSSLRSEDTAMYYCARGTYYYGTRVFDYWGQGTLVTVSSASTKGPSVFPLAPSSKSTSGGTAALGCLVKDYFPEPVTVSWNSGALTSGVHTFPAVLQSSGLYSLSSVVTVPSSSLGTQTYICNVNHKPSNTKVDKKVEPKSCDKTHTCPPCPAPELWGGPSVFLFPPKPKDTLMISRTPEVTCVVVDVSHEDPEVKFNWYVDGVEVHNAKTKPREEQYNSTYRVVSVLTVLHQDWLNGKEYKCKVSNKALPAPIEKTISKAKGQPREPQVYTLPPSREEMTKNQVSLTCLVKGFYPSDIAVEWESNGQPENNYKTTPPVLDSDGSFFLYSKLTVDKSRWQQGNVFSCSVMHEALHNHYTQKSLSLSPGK
# light: B1 light
# notes: HuAM4G7 IgG1 Fc variant
# B3: H268D/L328W/I332E (antibody, human IgG1, kappa)
# heavy: B1 heavy with D330K, Y332W, I336E
# light: B1 light
# notes: HuAM4G7 IgG1 Fc variant
# B4: H268D/L328F/I332E (antibody, human IgG1, kappa)
# heavy: B1 heavy with D330K, Y332F, I336E
# light: B1 light
# notes: HuAM4G7 IgG1 Fc variant
# B5: K326W (antibody, human IgG1, kappa)
# heavy: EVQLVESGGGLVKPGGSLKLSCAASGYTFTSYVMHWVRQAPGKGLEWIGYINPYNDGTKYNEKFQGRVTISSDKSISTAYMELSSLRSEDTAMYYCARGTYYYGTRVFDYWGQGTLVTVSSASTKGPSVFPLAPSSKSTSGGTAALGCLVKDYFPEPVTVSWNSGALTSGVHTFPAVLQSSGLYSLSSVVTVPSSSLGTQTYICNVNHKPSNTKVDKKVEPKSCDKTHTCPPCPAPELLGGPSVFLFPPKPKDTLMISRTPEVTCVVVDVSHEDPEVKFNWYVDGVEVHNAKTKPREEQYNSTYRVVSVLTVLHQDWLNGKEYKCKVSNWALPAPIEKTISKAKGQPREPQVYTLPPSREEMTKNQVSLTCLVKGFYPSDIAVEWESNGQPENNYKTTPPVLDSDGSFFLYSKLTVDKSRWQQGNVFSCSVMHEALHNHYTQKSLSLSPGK
# light: B1 light
# notes: HuAM4G7 IgG1 Fc variant
# B6: L235F/S239D/L328Y (antibody, human IgG1, kappa)
# heavy: B1 heavy with L239F, S243D, D272H, D330K
# light: B1 light
# notes: HuAM4G7 IgG1 Fc variant
# B7: H268E/L328Y/I332E (antibody, human IgG1, kappa)
# heavy: B1 heavy with D272E, D330K, I336E
# light: B1 light
# notes: HuAM4G7 IgG1 Fc variant
# B8: H268D/L328Y/I332E (antibody, human IgG1, kappa)
# heavy: B1 heavy with D330K, I336E
# light: B1 light
# notes: HuAM4G7 IgG1 Fc variant
# B9: K326A (antibody, human IgG1, kappa)
# heavy: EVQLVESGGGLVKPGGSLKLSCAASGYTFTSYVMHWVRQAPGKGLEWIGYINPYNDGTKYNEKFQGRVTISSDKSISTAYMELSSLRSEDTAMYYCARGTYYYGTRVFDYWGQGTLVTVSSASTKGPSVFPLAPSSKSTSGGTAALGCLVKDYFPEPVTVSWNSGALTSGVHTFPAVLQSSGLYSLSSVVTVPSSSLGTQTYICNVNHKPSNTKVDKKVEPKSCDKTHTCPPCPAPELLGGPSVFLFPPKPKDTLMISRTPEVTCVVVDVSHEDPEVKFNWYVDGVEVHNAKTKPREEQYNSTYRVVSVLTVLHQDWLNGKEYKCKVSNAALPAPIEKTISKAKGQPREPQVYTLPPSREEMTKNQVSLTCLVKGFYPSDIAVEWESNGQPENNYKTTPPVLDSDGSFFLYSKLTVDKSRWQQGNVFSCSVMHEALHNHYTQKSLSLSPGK
# light: B1 light
# notes: HuAM4G7 IgG1 Fc variant
# B10: L235F/L328Y/I332E (antibody, human IgG1, kappa)
# heavy: B1 heavy with L239F, D272H, D330K, I336E
# light: B1 light
# notes: HuAM4G7 IgG1 Fc variant
# B11: L235D/S239D (antibody, human IgG1, kappa)
# heavy: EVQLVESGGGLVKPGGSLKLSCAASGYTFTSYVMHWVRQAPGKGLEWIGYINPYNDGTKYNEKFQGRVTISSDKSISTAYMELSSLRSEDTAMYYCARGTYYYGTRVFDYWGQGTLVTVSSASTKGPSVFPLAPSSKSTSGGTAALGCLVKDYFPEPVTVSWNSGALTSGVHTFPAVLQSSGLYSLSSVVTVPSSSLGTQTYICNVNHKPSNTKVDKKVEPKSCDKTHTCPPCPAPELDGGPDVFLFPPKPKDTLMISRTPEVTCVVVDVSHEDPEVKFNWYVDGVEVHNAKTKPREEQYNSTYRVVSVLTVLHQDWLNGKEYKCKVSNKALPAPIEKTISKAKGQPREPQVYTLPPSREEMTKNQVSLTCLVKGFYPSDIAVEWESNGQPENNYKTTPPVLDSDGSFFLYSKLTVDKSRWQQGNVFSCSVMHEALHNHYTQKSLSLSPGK
# light: B1 light
# notes: HuAM4G7 IgG1 Fc variant
# B12: L234E/H268D (antibody, human IgG1, kappa)
# heavy: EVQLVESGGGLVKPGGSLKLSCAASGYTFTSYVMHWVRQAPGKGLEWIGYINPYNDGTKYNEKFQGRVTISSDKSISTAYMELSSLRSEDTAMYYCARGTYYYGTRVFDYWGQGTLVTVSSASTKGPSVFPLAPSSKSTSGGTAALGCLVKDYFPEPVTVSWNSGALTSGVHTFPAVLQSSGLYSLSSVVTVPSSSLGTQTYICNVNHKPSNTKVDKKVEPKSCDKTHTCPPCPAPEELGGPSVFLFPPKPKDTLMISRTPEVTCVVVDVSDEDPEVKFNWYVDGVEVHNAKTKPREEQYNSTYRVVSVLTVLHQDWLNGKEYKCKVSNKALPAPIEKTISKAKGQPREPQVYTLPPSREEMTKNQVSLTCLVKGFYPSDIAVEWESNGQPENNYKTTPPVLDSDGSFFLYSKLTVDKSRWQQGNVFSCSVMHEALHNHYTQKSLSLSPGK
# light: B1 light
# notes: HuAM4G7 IgG1 Fc variant
# B13: L234W/H268D/L328Y (antibody, human IgG1, kappa)
# heavy: B1 heavy with L238W, D330K
# light: B1 light
# notes: HuAM4G7 IgG1 Fc variant
# B14: H268D/L328Y (antibody, human IgG1, kappa)
# heavy: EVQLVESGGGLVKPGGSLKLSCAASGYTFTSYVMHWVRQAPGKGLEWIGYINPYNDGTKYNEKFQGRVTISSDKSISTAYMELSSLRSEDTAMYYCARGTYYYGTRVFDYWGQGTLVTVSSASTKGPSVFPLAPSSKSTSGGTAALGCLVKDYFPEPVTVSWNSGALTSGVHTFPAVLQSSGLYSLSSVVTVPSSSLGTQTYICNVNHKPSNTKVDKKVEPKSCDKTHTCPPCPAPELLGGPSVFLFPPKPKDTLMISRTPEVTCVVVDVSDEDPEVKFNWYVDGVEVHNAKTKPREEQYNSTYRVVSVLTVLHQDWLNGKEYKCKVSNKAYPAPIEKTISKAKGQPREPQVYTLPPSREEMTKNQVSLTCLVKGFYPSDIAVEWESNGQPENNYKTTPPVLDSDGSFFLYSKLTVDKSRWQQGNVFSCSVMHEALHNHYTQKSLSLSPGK
# light: B1 light
# notes: HuAM4G7 IgG1 Fc variant
# B15: L235F/H268D/L328Y (antibody, human IgG1, kappa)
# heavy: B1 heavy with L239F, D330K
# light: B1 light
# notes: HuAM4G7 IgG1 Fc variant
# B16: L234W/L328Y/I332E (antibody, human IgG1, kappa)
# heavy: B1 heavy with L238W, D272H, D330K, I336E
# light: B1 light
# notes: HuAM4G7 IgG1 Fc variant
# B17: L234F/G236N (antibody, human IgG1, kappa)
# heavy: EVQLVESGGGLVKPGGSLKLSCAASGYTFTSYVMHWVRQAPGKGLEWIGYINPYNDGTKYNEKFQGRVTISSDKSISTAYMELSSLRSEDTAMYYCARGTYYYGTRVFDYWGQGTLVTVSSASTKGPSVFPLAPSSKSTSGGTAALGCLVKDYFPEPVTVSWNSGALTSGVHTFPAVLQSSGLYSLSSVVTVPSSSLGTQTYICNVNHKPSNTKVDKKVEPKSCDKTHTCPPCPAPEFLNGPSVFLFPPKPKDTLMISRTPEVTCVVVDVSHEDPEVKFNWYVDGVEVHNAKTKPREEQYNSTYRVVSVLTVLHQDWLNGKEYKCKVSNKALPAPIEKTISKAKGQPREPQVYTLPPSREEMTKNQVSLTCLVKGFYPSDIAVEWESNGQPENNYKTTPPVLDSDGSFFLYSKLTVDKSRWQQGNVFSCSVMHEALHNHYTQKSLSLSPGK
# light: B1 light
# notes: HuAM4G7 IgG1 Fc variant
# B18: K326D/L328Y/I332E (antibody, human IgG1, kappa)
# heavy: B1 heavy with D272H, I336E
# light: B1 light
# notes: HuAM4G7 IgG1 Fc variant
# B19: L234W/S239D/L328Y (antibody, human IgG1, kappa)
# heavy: B1 heavy with L238W, S243D, D272H, D330K
# light: B1 light
# notes: HuAM4G7 IgG1 Fc variant
# B20: K326E (antibody, human IgG1, kappa)
# heavy: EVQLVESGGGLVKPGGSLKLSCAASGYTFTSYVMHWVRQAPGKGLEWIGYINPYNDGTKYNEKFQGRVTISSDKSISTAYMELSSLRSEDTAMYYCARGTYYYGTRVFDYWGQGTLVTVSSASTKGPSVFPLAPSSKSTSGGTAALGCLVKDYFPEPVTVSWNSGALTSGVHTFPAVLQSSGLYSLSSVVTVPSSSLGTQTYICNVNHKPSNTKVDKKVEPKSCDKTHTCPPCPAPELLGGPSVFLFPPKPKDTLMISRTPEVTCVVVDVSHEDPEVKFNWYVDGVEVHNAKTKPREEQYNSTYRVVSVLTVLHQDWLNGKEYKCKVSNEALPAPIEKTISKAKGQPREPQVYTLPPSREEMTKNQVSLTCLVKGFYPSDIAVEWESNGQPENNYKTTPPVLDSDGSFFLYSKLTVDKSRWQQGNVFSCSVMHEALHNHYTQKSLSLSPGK
# light: B1 light
# notes: HuAM4G7 IgG1 Fc variant
# Target: T1, human FcγRIIb receptor protein (R&D …)
# Test: SPR (Biacore)
# Experimental: Variants were screened for receptor affinity using Biacore™ technology, also referred to as Biacore herein, a surface plasmon resonance (SPR) based technology for studying biomolecular interactions in real time. SPR measurements were performed using a Biacore 3000 instrument (Biacore, Piscataway, N.J.). A protein A/G (Pierce Biotechnology) CM5 biosensor chip (Biacore) was generated using a standard primary amine coupling protocol. All measurements were performed using HBS-EP buffer (10 mM HEPES pH 7.4, 0.15 M NaCl, 3 mM EDTA, 0.005% vol/vol surfactant P20, Biacore). Antibodies at 20 nM or 50 nM in HBS-EP buffer were immobilized on the protein A/G surface and FcγRs were injected. After each cycle, the surface was regenerated by injecting glycine buffer (10 mM, pH 1.5). Data were processed by zeroing time and response before the injection of FcγR and by subtracting appropriate nonspecific signals (response of reference channel and injection of running buffer). Kinetic analyses were performed by global fitting of binding data with a 1:1 Langmuir binding model using BIAevaluation software (Biacore).
Fold FcγRIIb,binding result,Binder
18.6 fold,–,B1
–,no binding,B2
39.8 fold,–,B3
12.3 fold,–,B4
3.04 fold,–,B5
6.82 fold,–,B6
8.53 fold,–,B7
4.89 fold,–,B8
–,no binding,B9
3.31 fold,–,B10
4.11 fold,–,B11
5.89 fold,–,B12
5.92 fold,–,B13
1.91 fold,–,B14
3.97 fold,–,B15
6.32 fold,–,B16
–,no binding,B17
2.65 fold,–,B18
32.8 fold,–,B19
6.09 fold,–,B20
